The numbers were not newly measured in publication PMC7005313, which cites them from elsewhere.

The series has as its target Tyr99 (UniProt position 100, KDGNGYISAAE). Description: fluorescence. To be noted: not stated (the title of the cited paper refers to calcium and pH dependence).

Regarding Calmodulin (bovine testes) (Bos taurus), the pKa result was “as low as 7.0”.
